Data reported in PMC9731866 (The Journal of Biological Chemistry, 2022).

Target: the molecule itself
Assay: SEC-MALS; low concentration (1 mg/ml); Superdex 200 10/300 GL, 24 °C, 10 mM Hepes pH 7.4, 200 mM NaCl, 5 mM β-ME; N counts the units (heterodimers or heterotetramers) in the oligomer

B1: αMγ heterodimer of HsIDH3 (α-Q139A with γ) (complex, human)
chain 1: TGGVQTVTLIPGDGIGPEISAAVMKIFDAAKAPIQWEERNVTAIQGPGGKWMIPSEAKESMDKNKMGLKGPLKTPIAAGHPSMNLLLRKTFDLYANVRPCVSIEGYKTPYTDVNIVTIRENTEGEYSGIEHVIVDGVVASIKLITEGASKRIAEFAFEYARNNHRSNVTAVHKANIMRMSDGLFLQKCREVAESCKDIKFNEMYLDTVCLNMVQDPSQFDVLVMPNLYGDILSDLCAGLIGGLGVTPSGNIGANGVAIFESVHGTAPDIAGKDMANPTALLLSAVMMLRHMGLFDHAARIEAACFATIKDGKSLTKDLGGNAKCSDFTEEICRRVKDLD
chain 2: FSEQTIPPSAKYGGRHTVTMIPGDGIGPELMLHVKSVFRHACVPVDFEEVHVSSNADEEDIRNAIMAIRRNRVALKGNIETNHNLPPSHKSRNNILRTSLDLYANVIHCKSLPGVVTRHKDIDILIVRENTEGEYSSLEHESVAGVVESLKIITKAKSLRIAEYAFKLAQESGRKKVTAVHKANIMKLGDGLFLQCCREVAARYPQITFENMIVDNTTMQLVSRPQQFDVMVMPNLYGNIVNNVCAGLVGGPGLVAGANYGHVYAVFETATRNTGKSIANKNIANPTATLLASCMMLDHLKLHSYATSIRKAVLASMDNENMHTPDIGGQGTTSEAIQDVIRHIRVINGRAVEA
notes: α subunit of human IDH3 (HsIDH3), Q139A; γ subunit of human IDH3 (HsIDH3); One α and one γ chain; the heterodimer is the unit that associates into the (αMγ)2 heterotetramer; also called α_(Q139A)γ; mutant αγ heterodimer; source: E. coli BL21 (DE3) Codon-Plus, co-expressed from pQlinkN-α-γ-tev-His6, purified (Ni-NTA, TEV cleavage, gel filtration); not shown: His6, C-terminal, cleaved
  stoichiometry N: 2
